Source: the DeepSol protein solubility set

Test: soluble on expression in E. coli; label from the status in PepcDB or PDB records
With “MSLADERIEVLKDILLELHHGASAESVQERFNQHFKGVSAIEISMMEHELMNADTGITFEDVMGLCNVHANLFKGAIADVDVPDAEQEGHPVKVFKDENLALRAAIMRIRRIIENYTKPENEDFRQEILKGLKHQFDLLGQFYHHYTRKEKLFFPIMERYGHDSPPKVMWGVDDDIRDLFKDAKATLAKLPDGSIEELSQKFEAFAKEFEEMIFKEEAILLMILLESFTQDDWLQIASESDAYGYAILKPTEKWIPHRESFDNEADADTSDNQLADALNQVQDANSPEGTNTKVINTPEGQFTITFKPKEKEAAADRTTQQPFGNGYLSVEQANLILNHLPLEITFVNKDDIFQYYNDSVPAAEMVFKRTPSQVGRNVELCHPPKVLDKVKKVFELLRNGQRDKVNMWFQSERLGKFVYVTYAAVRDQAGDFQGVLEYVQDIKPFFELDSEFNRDEGHHHHHH” the “soluble on expression in E. coli” value was “soluble”.
With “MSLADKVVNIGFSGPLSGGAAAYGKDTLSGLQMAVDTLNKSGGIKVGNDKVTFKVVSLDDRYLPNETATNVKRLTGQDIQFIFVPHAGGIQAVQPLAIRDPEFLLVAYSSEPKILAANNPLTFMLPPRYDNYAQPFVATEMKTFGKKLALVGTSSAYGKQWADLIESEWKKQGGTVGRDNAVDYNTTVDFSAAVTKALSEKPDVLFIGGPSQPTALVIKAAREQGFKGGFIVMDQAKFEQMETVIPKNYLDGSVGVLPTRDFPGTQSFVVQYQRAYKKIPTSEAGLNYMGMNVLAKAMELAGTTSDPRKVRAQLDAAAKALPQSKTVYKVFGVTPQATWTPSEGHHHHHH” the “soluble on expression in E. coli” value was “soluble”.
In the case of “MSLADPGREGHLEQRILQVLTEAGSPVKLAQLVKECQAPKRELNQVLYRMKKELKVSLTSPATWCLGGTDPEGEGPAELALSSPAERPQQHAATIPETPGPQFSQQREEDIYRFLKDNGPQRALVIAQALGMRTAKDVNRDLYRMKSRHLLDMDEQSKAWTIYRPEDSGRRAKSASIIYQHNPINMICQNGPNSWISIANSEAIQIGHGNIITRQTVSREGHHHHHH”, the “soluble on expression in E. coli” value is reported as “not soluble”.
With “MSLAEVGSKSVLFVCLGNICRSPIAEAVFRKLVTDEKVSDNWAIDSSAVSDWNVGRPPDPRAVSCLRNHGISTAHKARQITKEDFATFDYILCMDESNLRDLNRKSNQVKNCKAKIELLGSYDPQKQLIIEDPYYGNDSDFEVVYQQCLRCCKAFLEKTYEGHHHHHH” the “soluble on expression in E. coli” value was “soluble”.
With “MSLAFEPPRRLVRAFGETAPEGDDWLATLPEVAERAVARRGLTVERVQVPGGRSSLVVLVRTAEGAPAVLKLAPRRARPESERAALVHWGGRGAVQVREEGDEEGVLLLERLHPDVSVRSLPEAKALLEAAGTLRRLWVEPPGSHPFETVAERTGRQAEAMRAGAAADAQVAPLVDAALAARAELLGGPSEQRLLHGTFRQSKVLAGDRMPWLAVGPDPVVGESAFDLARLVRDRVEDLIAQPSGASTTRRRIKRLAESLEVDQERLRGWTLFRAVESGVRARRVGRERDAELLLEFAGWLEGHHHHHH” the “soluble on expression in E. coli” value was “not soluble”.
In the case of “MSLAGFVVTDVTVATCSILNPFSSCKSSAPWWTQVEKDLYLRTGWTSAAYIRFQRKKEEELLPADKVVIDLKISRLAPEVQDDPKEDKADWEQRPGGIWLKRTAKRHASDSHSAITSVDVLFGADAVDPRPGWEVKDTPILLDSRTESLEARITVRRGDPLKIKKPVPRINENGRFKIMQLADLHLSTGLGHCRDPVPPELIPGQGCEADPRTLDFIERLLDEEQPDLVILSGDQVNGETSRDAQSPLFKSVKLLVDRKIPYAAIFGNHDDEGNLDRHQSMAILEDLPYSLSSAGPEDIDGVGNYIVEVLGRGNTDHSALTLYLLDSHSYSPDERQFRGYDWIKPNQIRWFKTTAQGLKAKHQQYAYMHMNMAFIHIPLPEFAQRGNYFRGNWSEPSTAPGFNSGFKDALEEEGILFVGCGHDHANDYCALSKNEAQKPSLWMCYGGGAGFGGYGGYGGFIRRVRFFDFDMNPGRVVTYKRLEYGNTDARIDEMMIVDGGMVKGPDEGHHHHHH”, the “soluble on expression in E. coli” value is reported as “soluble”.
In the case of “MSLAGHQAMHYSRILPNIWLGSCPRQVEHVTIKLKHELGITAVMNFQTEWDIVQNSSGCNRYPEPMTPDTMIKLYREEGLAYIWMPTPDMSTEGRVQMLPQAVCLLHALLEKGHIVYVHCNAGVGRSTAAVCGWLQYVMGWNLRKVQYFLMAKRPAVYIDEEALARAQEDFFQKFGKVRSEGHHHHHH”, the “soluble on expression in E. coli” value is reported as “soluble”.
For “MSLAILPPDSLETALSQAQQATQAALQAGKNRLQIEILLPDLNPMGLAAGYLPLFAELGSDLKVFFADAGSAALARREWGETAYSVRGVNERLTPIEASDRAIVIVAPTPVEVTAIEQMCLTAGDRPFIMLNPRLQDVAVVGIGYAGRQLRERFLNTLEPCYYLRPLAETVILWRCYPQAWQIWQYRETAPTCLAEFEQRPTSEDIERALSALGKPRAQSFLSRLSALLRALQSEGHHHHHH”, the “soluble on expression in E. coli” value was “soluble”.
In the case of “MSLALRLIERDPYEHPERLRQLQQELEAFRGQLGDVGALDTVWRELQDAQEHDARGRSIAIARCYSLKNRHQDVMPYDSNRVVLRSGKDDYINASCVEGLSPYCPPLVATQAPLPGTAADFWLMVHEQKVSVIVMLVSEAEMEKQKVARYFPTERGQPMVHGALSLALSSVRSTETHVERVLSLQFRDQSLKRSLVHLHFPTWPELGLPDSPSNLLRFIQEVHAHYLHQRPLHTPIIVHCSSGVGRTGAFALLYAAVQEVEAGNGIPELPQLVRRMRQQRKHMLQEKLHLRFCYEAVVRHVEQVLQRHGEGHHHHHH”, the “soluble on expression in E. coli” value is reported as “soluble”.
With “MSLALRSLIADARRLVVKVGSSLVTDDGRGLDQAAIARWAAQIAALRAAGKEVVLVSSGAIAEGMQRLGWTRRPKEIHELQAAAAVGQMGLAQVYESEFARHGIRTAQVLLTHGDLADRERYLNARSTLLTLLGLGVVPIINENDTVVTDEIKFGDNDTLGALVTNLIEGDALIILTDQRGLYTADPRKHPDARFVDEAQAGAPELEAMAGGAGSSIGKGGMLTKIVAAKRAAKSGAHTVIASGREADVLARLAGGEAIGTQLRAPTGRMAARKQWMIDHLQLRGRVVLDAGAVDKLTAGGKSLLPIGVTEVQGEFARGEVISCVDTAGREVARGLTNYSAAEARLIARKASSEIEAVLGYVSAAELVHRDNLVLLEGHHHHHH” the “soluble on expression in E. coli” value was “soluble”.
In the case of “MSLAMNKVPGYNIYIGGVFALKNKVAMSGANITHVLSVIRLRPKDDLFAGYQHHRIEVDDLDDENLLEHFPSAIKFIQSGLDAGGGVLVHWPLTASSAMGKSRSATVCIAYLLRRQRNALTPQSALALLRESRPLCEPNPGFMEQLNVYYQMGEGHHHHHH”, the “soluble on expression in E. coli” value is reported as “not soluble”.
With “MSLANAIRRSIPKLNRALVLPAFRSFHDEFSSKIPLEDIRKQTKGKEQHVPSARSIAAKYQVFRDTDAPVILDVDEERQIHEAGLQQPEKIHDLPDMYSGINLSRGKTGVYEIEDLVTVLRLNSAINIFVCTVPKDIKYVDYMCIVTGRSVRHMRGMAEFVRKVFKMKRHPSDIIPKIEGESSSDWMALDLGNIALHIFSTKAREQYDLESLWSVGSEFDREYNKPSEELVQLFEKHTIYLDDLKPLKKEGHHHHHH” the “soluble on expression in E. coli” value was “not soluble”.
With “MSLANIQEIAKLAGVSSATVSRVINNRDYVSEETRKRVQTIIDKLDYVPNINAVSLKKGATKLIGMVIPSFTDSLNVFLKSFTMMAQEHGYNVTLFMTRIDPDKELEALEMLRQKQIDALVLVIRSNDWKTIEHYTKYGPIVTWQRVESEKIPSVFMNQYDGYTLALEHLYAKGYRKFVNVYGNTTGLNTQSRMLAFKDFCARYELDPHEFRQFYGQGSRQDGEKIAHWWSETEHKPDAFLTPNDYFAAGLLTEARRLGYSVPEDFAICGFDNMEVAHLLDITTIHYPVNLQAENAFTLIMNQLFGSNLPLLDLDFHLVERKTTEGHHHHHH” the “soluble on expression in E. coli” value was “soluble”.
In the case of “MSLAQGDTEVPTLYLWKTGPWGRCMGDDCGPGGIQTRAVWCAHVEGWTTLHTNCKQAVRPSNQQNCFKVCDWHKELYDWRLGTWDRCQPVISKSLEKSRECVKGEEGIQVREIMCIQKDKDIPAEDIICEYFEPKPLLEQACLIPCQKDCMVSEFSPWSECSRTCGSGLQHRTRHVVAPPQYGGSGCPNLTEFQVCQSNPCEEDESLYSLQVGPWSACSVPHTRQARQARRRGKNKEREKERGKAVKDPEARELIKKKRNRNRQNRQENRYWDIQIGYQTRDVTCLNRTGKSADLSFCQQERLPMTFQSCVITKECQVSEWLEWSPCSKTCHDVTSPTGTRVRTRTITQFPIGSEKECPALEEKEPCVSQGDGAVLCATYGWRTTEWTECHVDPLLSQQDKRRANQTALCGGGVQTREIYCIQTNDNMLSHGNTEGHHHHHH”, the “soluble on expression in E. coli” value is reported as “not soluble”.
In the case of “MSLAQIKSLFATRLYHAPLSEHGPALDPAEFAASCYSIAEDDDAGQEWCEREGYPGYTSYASLTDLPWRFPIFADLVKSLDAHVAAFAEDLEFELDGKALRLEDIWINILPEGGVHGSHIHPHSVISGTTYVAMPEGTSALKLEDPRLPFMMAAPTRRKGAREELRTFRSVAPKVGDVLLWESWLRHEVPMNMAEEDRISVSFNYAWGEGHHHHHH”, the “soluble on expression in E. coli” value is reported as “soluble”.
For “MSLAQISSLFVTRLYHAPLSDHGPAIDAEEMESSCYAIAEDDEAGQGWCEENGYPGYTSYASLTDLPWRFPIFADLVKSLDAHVAAFAEDLEFDLDGRALELEDLWINILPEGGSHASHIHPHSVISGTTYVSMPGGTSALKLEDPRHAMMMAAPARRKTARDELRQFIYVTPAVGDVLLWESWLRHEVPMNMSEDDRISVSFNYRWAEGHHHHHH”, the “soluble on expression in E. coli” value was “soluble”.
In the case of “MSLAQWNKQDSIRLQELLNGDGELKINTEAVKSIHFDFQSDKDNIKGTPIMSEDKPWMKFLKDLPKNFGDTTKWVRPNFVRLTPYTPYTTWHEDPVNDPIFLKRKDSLTISWKLNIKLIPGLRNGYVILPAGMDQTVTPSNNPLIGGLDADKFLYESLTKRGRAIRRNRNRAKGWKIYQSYVPTRQDSILFPRISKVSEQDSLPKQDTLLIKKDSAIINQNSLLLKDKINGKDQTEGHHHHHH”, the “soluble on expression in E. coli” value is reported as “soluble”.
With “MSLARNLKADKTKTIGVIVRDITGFDTSRTIRGVDDFCKGCDYNALIYNTDFDPETEAKSLEALYQMRVDGIIIASSGQNNTLISEYIDKGMPIVHFQLEHDGSEKNLILSDYRQAAFDATEYLIKLGHKRICFMTQDFKNVKSRNERYSGYVAALKKYDIVQDPALIQYWQRETGFDHSPKSVLESAAAPTAFFTQHLAITTELLTHLNQENITIPDDVSLIGFDDIPMAEFFKVPVTVIKQEPYIIGKEAAKLLLEKVNDKNRHSQKIMISCSITERQSCTEGHHHHHH” the “soluble on expression in E. coli” value was “soluble”.
For “MSLASVDPYEHLNAWVSAIETSGVLVLATRGGKVAIDEMRGMCLYFDELPVIVLNGSDHPRPRLFSLLHEFVHVVLHTEGLCDVIADAHPSTQDRSLEARCNAIAAAVLMPADVVRARPEVIVRSETPSSWDYESLRPVAAHFGVSAEAFLRRLSTLGIVPVEVYRQRRAEFIAAHEDEAERARSAGGGNWYRNTVRDLGKGYVRAVTDAHRRRVIDSNTAAIYLDAKVSQIPKLAESAELRSVEGHHHHHH”, the “soluble on expression in E. coli” value was “not soluble”.
For “MSLATALVLGYSAFDLGLFSDKDPRLKLIKKAIRKDLEAMAADGVSWLVFTGSLGFEYWVLEVAQEMKTEYGFQLATIFAFETHGENWNEGNQMKLSRFKQVDFVKYAYPRYEHKGQLRDYQQFLLENTTSSYLFYDEENETKLAYFYQKMKNQEDYFIKRLTFDQLNELAENFSENEGHHHHHH”, the “soluble on expression in E. coli” value was “soluble”.
